Measured values from paper PMC11157053.

Biological target: T1, His6-LexA (Streptomyces mobaraensis NBRC 13819) (UniProt A0A5N5W758)
T1 sequence: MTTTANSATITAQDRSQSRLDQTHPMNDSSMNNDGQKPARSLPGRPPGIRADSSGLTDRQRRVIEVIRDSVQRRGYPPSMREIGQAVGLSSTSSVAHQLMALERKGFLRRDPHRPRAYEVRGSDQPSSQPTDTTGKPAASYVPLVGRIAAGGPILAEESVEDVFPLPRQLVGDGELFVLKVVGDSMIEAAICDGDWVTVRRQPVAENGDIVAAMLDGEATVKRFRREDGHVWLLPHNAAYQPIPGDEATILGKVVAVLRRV
Assay: EMSA
Settings: EMSA: 0, 100, 200 ng His6-LexA, 25 nM probe, 20 uL; 30 mM KCl, 10 mM Tris-HCl (pH not stated), 0.4 mM DTT, 2 mM MgCl2, 0.2 mM EDTA, 2% glycerol; 30 min, 30 C …

Sequence	binding
CGGTGTGGAAGGTGGCGTGTACGGCATACGGATCGGAAGTGTCGTACCGCAGACCTGCGGGTACAGGCAGTGACGATTCGCTCGACACAACGAGGCGCAGGTGCAG (double strand) [Probe ssgA (106 bp)]	binds
CAGGCTGGTACTGATCGTCACCTGCGCGATTGGCGAGACACCTGCTGAGCAGACCGCCGCGGACCATCTCGGACACCTGCCCGACCGCTGCATTCGCCAACCGCCTCCGCACTCTCAACGACG (double strand) [Probe whiB (123 bp)]	binds
GAAAAGCGAACCAATTGGAATGTGGGGCCGGAACGGGAGGTCAGGCGTTCGACGTCACACTCCGCAGGGTACCGCTCACAGCCCGAAGCGGCGCTGGAGGTCTCCCAACTG (double strand) [Probe marR1 (112 bp)]	binds
